Each block holds one substance with its values, some of them ahead of it.
Assays:
[1] = target: TFIIH p62 PH (Homo sapiens) (UniProt P32780); assay: ITC; settings: cited from earlier work
[2] = target: TFIIH p62 PH (Homo sapiens) (UniProt P32780); assay: ITC; settings: cited from earlier work; remark: listed apart in the source
[3] = target: TFIIH p62 PH (Homo sapiens) (UniProt P32780); assay: ITC; settings: cited from earlier work; remark: listed apart in the source
[4] = target: TFIIH p62 subunit PH domain, 1-108 (UniProt P32780); assay: real-time NMR of complex during CK2 reaction; settings: reference: complex before CK2 addition; sites S129
[5] = target: TFIIH p62 subunit PH domain, 1-108 (UniProt P32780); assay: real-time NMR of complex during JNK2α2 reaction; settings: reference: Thr55-phosphorylated complex before JNK2α2; sites S46
[6] = target: TFIIH p62 subunit PH domain, 1-108 (UniProt P32780); assay: real-time NMR of complex during GRK5 reaction; settings: reference: complex before GRK5 addition; sites T55

Substance: p53 TAD2 (from UniProt P04637)
Kd [1]: 5 µM
Kd [2]: 6 µM
Kd [3]: 1 µM

binding against the reference [4]: stronger
Substance: XPC AF, 109-156 (from UniProt Q01831) complex after CK2 reaction

binding against the reference [5]: stronger
Substance: p53 TAD, 1-73 (from UniProt P04637) same complex after JNK2α2 reaction

binding against the reference [6]: stronger
Substance: p53 TAD, 1-73 (from UniProt P04637) complex after GRK5 reaction

— article PMC4753521
